Assay results published in a protein production outcome set (Wang et al. 2014).

Assay: label from the status in PepcDB records

Sequence | protein production
MSNDTPFDALWQRMLARGWTPVSESRLDDWLTQAPDGVVLLSSDPKRTPEVSDNPVMIGELLHEFPDYTWQVAIADLEQSEAIGDRFGAFRFPATLVFTGGNYRGVLNGIHPWAELINLMRGLVEPQQERASLEHHHHHH | not failed
MSNFEKRNRKMAEKNIRKPKQERSIEKRNKILQVAKDLFSDKTYFNVTTNEIAKKADVSVGTLYAYFASKEDILTALLKRYNDFFLTTIFADINSQDSLDRFKKNPKEWLNVLINQLLAAEDKIFHAQIEMLAYAIPQAKALLEEHNNNLKNLTYKCLLYYSDQAANPSFKTLSLVVFDFISALVDELLYHEHTQEEAHQIKKTGIDSLDLIIKSYL | not failed
MSNHIDRDVINALIAGHFADPFSVLGMHRTDAGLEVRALLPDATDVWVIEPKTGRKVGKLECLDSRGFFSGVLPRRKNAFRYQLAVTWHGQQNLIDDPYRFGPLLQ | not failed
MSNHRHDHSLPSDADSRYLVAALTLLAAFMITEIITAVISGSLALLSDAGHMLSDIGAIAIALWAARLTRRRPQGSWTWGWKRAEIMSAAVNGVTLLVVAILVGIEAVRRLVTPPAVGGGLVMVIAAVGVVVNVAVAWLVARANRRSLNVEGAYQHILTDLFGFIGTLVAGLVIVTTGWTRADAIASLIICGLMLRAAWSLLSQTGRILMEVAPASLDLDEVRHHLMDLDHVRSVHDLHAWTVSSDLPALSAHIVVEDSCFADGHAPILLAQIQQCLSGHFDLDHSTLQLEPPRHAGTENQTM | failed
MSNHSRDEPSTAPKTDQWYDLVLGSSAKDDSSHKFCTLRYEFKPASIDKNRSGSMHKKKDNRVSVEFQNNQPGKPKVTFEGSSEDYKESDAVLFFDGEKFRLERLHRAVTQLRHVRTPGESAAASQSAVPVEHRLSPVGRAAKSPQVNRSLLPDVPVEVERIEIGKPENSAEPANTGNVPATSPVEDKNDDGDEHQEIDLVEIFGSFTPENDNAEKENADGGEYVESLNKQLSMTEEEIADVDDDSGGEGEKGLNAAEALRAQVNAEVQKSQTSSSSSSSGSSSGSDSDGRSKSVSSGSGSGGQSSSGSSSRGSGGSDDEDEVNSV | failed
MSNKEGSGGFRKRKHDNFPHNQRREGKDVNSSSPVMLAFKSFQQELDARHDKYERLVKLSRDITVESKRTIFLLHRITSAPDMEDILTESEIKLDGVRQKIFQVAQELSGEDMHQFHRAITTGLQEYVEAVSFQHFIKTRSLISMDEINKQLIFTTEDNGKENKTPSSDAQDKQFGTWRLRVTPVDYLLGVADLTGELMRMCINSVGNGDIDTPFEVSQFLRQVYDGFSFIGNTGPYEVSKKLYTLKQSLAKVENACYALKVRGSEIPKHMLADVFSVKTEMIDQEEGIS | failed
MSNKGSSDLRLLLSTLVISGLVAGLAYWQLSQHWTRSPDQNAGSPLHTPTSKWQKIALAMTLRGHEDEVNAIALSPDGNFLVSAGDDRRLYFWNLATGTALGQAKGHTDWIYALVMTPDGQTVISGSKDKTIKLWGVGDRQLQATLSGHQDFVNGLALSPDGRTLASASYDHTVKLWNVPSRQEITTLKANEGIMLSVAISRDGRFLATGGVDKLIRIWDLPSRRLLRTLEGHTSDVNSLAFTPDSSQLVSGSDKDGIKLWNLTTGELQQQFGTEGGQVFSVAVSPDGSTLASGHGDQTVKLWSLSGQLLRNLKGHSGAVYSVVFGQDQLISASEDKTIKVWRLFPETP | failed
MSNMVEVPIFIAILSFIVMCIGELLAYYSVSLKYKYEFEAISFGFIFGVATLILIPKSYSNMFVLYVILGMITVYLIEKYLAYCPLSKKYCVECDNLEENRIKFIYPISFFIHTFIDGLIIAVSYISEIGLPLYLAILMHKLPAGFVLISPLKGVYKNPLYPGVFVSFGTVLGTIVGLVTLKDVSTKILLAFSGGVFLGAFLMLAPHIYEHKEEKTFLYILLGYILVGIIALH | failed
MSNNEPSSLKQSIKLAWPISLQSILVTMLGMSDIMMVGHLGDTAVASVGLGNRIQFVFLIILAGLASGVGTLSAQHFGAGQIGVIRQIIVKTLVIAAGILLPILLITFLFAGNIMGIATTDPSVINTGTSYLWLTMPSLIFVVVVMIFENALRGLGQVIFPMFISIIAIITNIILNYWLIKGGLGIEPMGVIGAALATLLARALHALLILTYLAKVKHSIFPTTFFCADFYNKQAWTKLLTLVWPMMLSFGVWSLGTFVYQLIYGRIGTQELAVMSLLAPIEGLLVSFFFGFASACAILVGQRLGKNEFSNAWSLAKNYAISAPIITFLLALILLQYQYLVFMPFSNLSSETITLSQEILVLICFGTCLKVFNMTIAMGILRAGGDNKYCMFIDISGMWIISIPLTFMAAFYFMLPLYWVALIAYSEEIIKAVMFIFRMKTRHWLKNLTAESMA | failed
MSNPLLSIIIPTHNRPHLVTHAVQSALEQTMEDLEVIVVDDASTQPIDLPSHPRLRLIRLLQSHGGAGARNVGLEAALGRWVAFLDDDDRLLPQMAEVSLEALSQTSLPAPVAVISGLEEVNAQGKVLGQRLPPPLRPRGVHFFLEEIEPDQSYNTKQTLVVEREVLQKIGGWDEEMRSRVHSELFLRLNPACSIIGLPIITYQLYNHGGQRVSRNPMLRQESFLRLVHKHKSLFQAHPQMFAKLVYEHANKCYEIGLKREAFYNLFWSMQLDPLQIAPRVVTRVYQSRLKFVIRSYKLKH | failed
MSNQFIQYLNRAASGSIPGFVIMKLLMLELPNLMGLLLPLGFYVALLLAYGRLYAESEMTVLRACGYGPRQLLKHSFAMATVVLVVVAIVMIWASPVIAVERIKLIRSTGIKTLIQTIMPGRFHAINSGQQIFYVQSMNRDHSQAEQIFMAKHSVQDNRLLWDVLWADKAFAEVNPQTGEEYIVLQNGKEYQGVPGHADYQIAEFASYKSKLPNPTVVMHDDARTAKTRDLWPLNNHDLKKAAELQWRISIPLMVLTLTLVAVPLSRVSPRSGKYSKLLPAIIIYIFYANFMFVSRDAIATGKIPWWIGMWWVHVAVAILGILFIWRNQVKLA | failed
MSNSRELGDLLEQIRLGEDSQLEFKRVVFENDKIKGPNGDSLSQEIAAFANAIGGRLILGVDDKTRDVVGIPLDRLDAVSIWLENCVHDRIKPEPTIYLRRRLVPDRSGTEHAVLVIDIPRSLYVHLAPGGYFRRQGSSKHELPPNELLRLMQSRQRAGTLGFDEMPVLGCTQANFDAALYGRFLGTTDEPEELRLRKLKLLVPGEPGEEWASVAGVLMATATPSDWLPQAYVQCVHYAGTEKTAQEQLDAQDIQGPLDQQIRQAAAFVLRGMRTAARKNLGRIDVPQFDPEAVFEAIANAGAHRDYSISGAPVQVHLFTDRLEITSPGALPNSQSVESIALRTATRNELLTNLLARCPVEMEGVGRSRVMEKRGEGVPQILNRSERLSGHRPKFELLGENALRVTLYAADPETSPLLNEAGRGSVGLPHAGFARDDG | failed
MSNSSIDIGVPSLPPPFSIGTISIPTFSRQHLFLKIILHYNLVERYSRQLIVLGLGIQQRLNELKILIAGCGALGTAVAELLARLGVKELTIVDADVVDITNLHRVHLFDENDVGKPKAEVCAKKISLINSSIKINYIIDILDEENVERLISDKDYVFDALDSLYYKLLLNDAIVKLGKILIYGGINGEYGSAKLIDPSQTSCLSCFIDYSDQDEIGNSCDVIGTTPLIVELTATLQVNLMLNHLRGNPDYSLFYIDSRELKIERINIEKNSQCKTCVLNEYPFLYQKISKPKCGIFRTNMKIPELDEPKVFKNLGNVTLCYPSIGCFEKRGR | failed
MSNTYLASMALMGALVVAVVTWMVRGRGWYHYSPGSSTSGRSPTSDRESRFETYADQPMVWVGAFAVLVVGLLVGVVASISGPVETQSIAGLAVAVVGGAGLCGYLLFGVYLSATRRGHPRSLAVAESATVAGVLFLIAVGFQLVGA | failed
MSNVLTEIDSQYPYMTKNEKKIAKFILNSPQKVIKMRSQDLASLLDISTSSVIRFSKKITDGGFHDLKINISKYVPKASSIYNVELMNNESTESLRTKLHTRTTRALNHANNELN | not failed
MSNVTAEQKKEVKGRGFLPSRDGEHFAARIITVNGVINASQAKKIAEAAEKFGNGQLAFTTRLTVELPGVKFEDIEALSEFIASENLITGGTGSRVRPVVACKGTVCVHGLADTQALAAEIHEEFYKNWYDVKLPHKFKIGVGGCPNNCIKPDLNDLGIVGQRVPDYDSELCVGCKKCAVVEVCPVKAAKLTDKGKLEIDSNLCNNCGKCIESCNFDSIEEKESGYKVYIGGKWGKSVRPGTQIDRLFSKEELMTLIEKAILLFREQGNTGERFGITIDRIGADKFIEMLLSDEVLERKEEILEALLHLTGGAVCLEHHHHHH | failed
